Experimental findings from US20210340548A1 are described below.

Sequences and labels used below:
B1: TetR (I194T, 1-206)-CIB1 (-NLS) fusion construct as released from the TetR (I194T, 1-206)-CIB1 (-NLS)-T2A-Cry2 PHR (L348F)-p65AD-NLSx2 fusion construct (protein, part only)
chain: MARLDKSKVINSALELLNEVGIEGLTTRKLAQKLGVEQPTLYWHVKNKRALLDALAIEMLDRHHTHFCPLEGESWQDFLRNNAKSFRCALLSHRDGAKVHLGTRPTEKQYETLENQLAFLCQQGFSLENALYALSAVGHFTLGCVLEDQEHQVAKEERETPTTDSMPPLLRQAIELFDHQGAEPAFLFGLELITCGLEKQLKCESGSPKKKHMEFNGAIGGDLLLNFPDMSVLERQRAHLKYLNPTFDSPLAGFFADSSMITGGEMDSYLSTAGLNLPMMYGETTVEGDSRLSISPETTLGTGNFKAAKFDTETKDCNEAAKKMTMNRDDLVEEGEEEKSKITEQNNGSTKSIKKMKHKAKKEENNFSNDSSKVTKELEKTDYI
modifications: residual T2A residues at C-terminus
B2: rTetR (I194T, V10 mutation, 1-206)-CIB1 (-NLS) from the T2A construct (protein, part only; not given: Leftover T2A residues, part only)
chain, part: MARLDKSKVINSALELLNGVGIEGLTTRKLAQKLGVEQPTLYWHVKNKRALLDALPIEMLDRHHTHSCPLEGESWQDFLRNNAKSYRCALLSHRDGAKVHLGTRPTEKQYETLENQLAFLCQQGFSLENALYALSAVGHFTLGCVLEEQEHQVAKEERETPTTDSMPPLLKQAIELFDRQGAEPAFLFGLELITCGLEKQLKCESGSPKKKHMEFNGAIGGDLLLNFPDMSVLERQRAHLKYLNPTFDSPLAGFFADSSMITGGEMDSYLSTAGLNLPMMYGETTVEGDSRLSISPETTLGTGNFKAAKFDTETKDCNEAAKKMTMNRDDLVEEGEEEKSKITEQNNGSTKSIKKMKHKAKKEENNFSNDSSKVTKELEKTDYI
B3: rTetR (I194T, M2 mutation, 1-206)-CIB1 (-NLS) from the T2A construct (protein, part only; not given: Leftover T2A residues, part only)
chain, part: MARLDKSKVINGALELLNGVGIEGLTTRKLAQKLGVEQPTLYWHVKNKRALLDALPIEMLDRHHTHFCPLEGESWQDFLRNNAKSFRCALLSHRDGAKVHLGTRPTEKQYETLENQLAFLCQQGFSLENALYALSAVGHFTLGCVLEEQEHQVAKEERETPTTDSMPPLLRQAIELFDRQGAEPAFLFGLELITCGLEKQLKCESGSPKKKHMEFNGAIGGDLLLNFPDMSVLERQRAHLKYLNPTFDSPLAGFFADSSMITGGEMDSYLSTAGLNLPMMYGETTVEGDSRLSISPETTLGTGNFKAAKFDTETKDCNEAAKKMTMNRDDLVEEGEEEKSKITEQNNGSTKSIKKMKHKAKKEENNFSNDSSKVTKELEKTDYI
B4: rTetR (I194T, V16 mutation, 1-206)-CIB1 (-NLS) from the T2A construct (protein, part only; not given: Leftover T2A residues, part only)
chain, part: MARLDKSKIINSALELLNGVGIEGLTTRKLAQKLGVEQPTLYWHVKNKRALLDALPIEMLDRHHTHSCPLEGESWQDFLRNNAKSYRCALLSHRDGAKVHLGTRPTEKQYETLENQLAFLCQQGFSLENALYALSAVGHFTLGCVLEEQEHQVAKEERETPTTDSMPPLLKQAIELFDRQGAEPAFLFGLELITCGLEKQLKCESGSPKKKHMEFNGAIGGDLLLNFPDMSVLERQRAHLKYLNPTFDSPLAGFFADSSMITGGEMDSYLSTAGLNLPMMYGETTVEGDSRLSISPETTLGTGNFKAAKFDTETKDCNEAAKKMTMNRDDLVEEGEEEKSKITEQNNGSTKSIKKMKHKAKKEENNFSNDSSKVTKELEKTDYI
B5: TetR (I194T, H100Y, 1-206)-CIB1 (-NLS) from the T2A construct (protein, part only)
chain: MARLDKSKVINSALELLNEVGIEGLTTRKLAQKLGVEQPTLYWHVKNKRALLDALAIEMLDRHHTHFCPLEGESWQDFLRNNAKSFRCALLSHRDGAKVYLGTRPTEKQYETLENQLAFLCQQGFSLENALYALSAVGHFTLGCVLEDQEHQVAKEERETPTTDSMPPLLRQAIELFDHQGAEPAFLFGLELITCGLEKQLKCESGSPKKKHMEFNGAIGGDLLLNFPDMSVLERQRAHLKYLNPTFDSPLAGFFADSSMITGGEMDSYLSTAGLNLPMMYGETTVEGDSRLSISPETTLGTGNFKAAKFDTETKDCNEAAKKMTMNRDDLVEEGEEEKSKITEQNNGSTKSIKKMKHKAKKEENNFSNDSSKVTKELEKTDYI
modifications: T2A residues at C-terminus
B6: rTetR (I194T, rtTA mutation, 1-206)-CIB1 (-NLS) from the T2A construct (protein, part only; not given: Leftover T2A residues, part only)
chain, part: MARLDKSKVINSALELLNEVGIEGLTTRKLAQKLGVEQPTLYWHVKNKRALLDALAIEMLDRHHTHFCPLKGESWQDFLRNNAKSFRCALLSHRNGAKVHSDTRPTEKQYETLENQLAFLCQQGFSLENALYALSAVGHFTLGCVLEDQEHQVAKEERETPTTDSMPPLLRQAIELFDHQGAEPAFLFGLELITCGLEKQLKCESGSPKKKHMEFNGAIGGDLLLNFPDMSVLERQRAHLKYLNPTFDSPLAGFFADSSMITGGEMDSYLSTAGLNLPMMYGETTVEGDSRLSISPETTLGTGNFKAAKFDTETKDCNEAAKKMTMNRDDLVEEGEEEKSKITEQNNGSTKSIKKMKHKAKKEENNFSNDSSKVTKELEKTDYI
B7: rTetR (I194T, S2 mutation, 1-206)-CIB1 (-NLS) from the T2A construct (protein, part only; not given: Leftover T2A residues, part only)
chain, part: MARLDKSKVINSALELLNGVGIEGLTTRKLAQKLGVEQPTLYWHVKNKRALLDALPIEMLDRHHTHFCPLEGESWQDFLRNNAKSFRCALLSHRDGAKVHLGTRPTEKQYETLENQLAFLCQQGFSLENALYALSAVGHFTLGCVLEEQEHQVAKEERETPTTDSMPPLLRQAIELFDRQGAEPAFLFGLELITCGLEKQLKCESGSPKKKHMEFNGAIGGDLLLNFPDMSVLERQRAHLKYLNPTFDSPLAGFFADSSMITGGEMDSYLSTAGLNLPMMYGETTVEGDSRLSISPETTLGTGNFKAAKFDTETKDCNEAAKKMTMNRDDLVEEGEEEKSKITEQNNGSTKSIKKMKHKAKKEENNFSNDSSKVTKELEKTDYI

For the assay, the target named is Cry2 PHR (L348F)-p65AD-NLSx2 fusion construct as released from the TetR (I194T, 1-206)-CIB1 (-NLS)-T2A-Cry2 PHR (L348F)-p65AD-NLSx2 fusion construct. The experiment in a line: cell-based or functional assay.
Sequence of Cry2 PHR (L348F)-p65AD-NLSx2 fusion construct as released from the TetR (I194T, 1-206)-CIB1 (-NLS)-T2A-Cry2 PHR (L348F)-p65AD-NLSx2 fusion construct (Q96524 other isoform, or with tags, fused parts or gaps L348F I194T L348F L348F I194T L348F): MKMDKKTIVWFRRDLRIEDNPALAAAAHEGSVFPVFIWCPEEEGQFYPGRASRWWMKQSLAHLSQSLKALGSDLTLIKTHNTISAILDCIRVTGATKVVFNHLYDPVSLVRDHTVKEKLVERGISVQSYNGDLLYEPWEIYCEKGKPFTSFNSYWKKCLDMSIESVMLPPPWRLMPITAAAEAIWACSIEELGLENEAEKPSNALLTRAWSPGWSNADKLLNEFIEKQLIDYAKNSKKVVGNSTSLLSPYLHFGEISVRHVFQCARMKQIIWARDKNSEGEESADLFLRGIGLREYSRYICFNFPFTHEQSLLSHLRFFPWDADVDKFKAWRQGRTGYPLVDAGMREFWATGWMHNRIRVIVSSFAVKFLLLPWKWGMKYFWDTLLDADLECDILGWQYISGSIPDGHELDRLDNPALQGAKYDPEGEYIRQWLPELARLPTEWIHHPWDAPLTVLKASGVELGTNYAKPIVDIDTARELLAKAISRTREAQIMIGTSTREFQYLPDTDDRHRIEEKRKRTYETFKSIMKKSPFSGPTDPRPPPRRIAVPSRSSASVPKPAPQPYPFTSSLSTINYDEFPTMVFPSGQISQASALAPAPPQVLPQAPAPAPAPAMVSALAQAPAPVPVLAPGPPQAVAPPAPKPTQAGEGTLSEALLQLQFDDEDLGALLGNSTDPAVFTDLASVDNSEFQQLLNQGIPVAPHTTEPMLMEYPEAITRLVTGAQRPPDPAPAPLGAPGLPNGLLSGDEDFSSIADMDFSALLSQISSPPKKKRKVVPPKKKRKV
As to B1, the Average of the Light/Dark ratio, Dox 0 ng/mL came out at 19; the Average of the Light/Dark ratio, Dox 0 ng/mL, 36 h light turned out to be 2780; the Average of the Light/Dark ratio, Dox 75 ng/mL came out at 1.1; the Average of the Light/Dark ratio, Dox 500 ng/mL, 36 h light came to 0.2. For the same molecule, the Light/Dark, Dox 0 ng/mL was 36.2; the Light/Dark, Dox 0 ng/mL, 36 h light amounted to 525; the Light/Dark, Dox 75 ng/mL came to 0.9; the Light/Dark, Dox 500 ng/mL, 36 h light amounted to 0.2. Further, the Ub-ELuc luciferase, Dark, Dox 0 ng/mL was 4 relative; the Ub-ELuc luciferase, Dark, Dox 0 ng/mL, 36 h light was 15.4 relative; the Ub-ELuc luciferase, Dark, Dox 75 ng/mL worked out at 0.1 relative; the Ub-ELuc luciferase, Dark, Dox 500 ng/mL, 36 h light was 9.9 relative. Further, the Ub-ELuc luciferase, Light, Dox 0 ng/mL is 76.7 relative; the Ub-ELuc luciferase, Light, Dox 0 ng/mL, 36 h light amounted to 8090 relative; the Ub-ELuc luciferase, Light, Dox 75 ng/mL was determined as 0.1 relative; the Ub-ELuc luciferase, Light, Dox 500 ng/mL, 36 h light was 1.8 relative.
B2: the Average of the Light/Dark ratio, Dox 0 ng/mL was found to be 1.3; the Average of the Light/Dark ratio, Dox 0 ng/mL, 36 h light is 9.6; the Average of the Light/Dark ratio, Dox 75 ng/mL amounted to 32.8; the Average of the Light/Dark ratio, Dox 500 ng/mL, 36 h light came out at 959. Also, the Light/Dark, Dox 0 ng/mL is 1.1; the Light/Dark, Dox 0 ng/mL, 36 h light was 9.2; the Light/Dark, Dox 75 ng/mL worked out at 42.7; the Light/Dark, Dox 500 ng/mL, 36 h light amounted to 412. Besides, the Ub-ELuc luciferase, Dark, Dox 0 ng/mL turned out to be 0.2 relative; the Ub-ELuc luciferase, Dark, Dox 0 ng/mL, 36 h light stood at 3.6 relative; the Ub-ELuc luciferase, Dark, Dox 75 ng/mL was found to be 1.2 relative; the Ub-ELuc luciferase, Dark, Dox 500 ng/mL, 36 h light was 22.8 relative. Moreover, the Ub-ELuc luciferase, Light, Dox 0 ng/mL was 0.2 relative; the Ub-ELuc luciferase, Light, Dox 0 ng/mL, 36 h light amounted to 25.3 relative; the Ub-ELuc luciferase, Light, Dox 75 ng/mL is 51.7 relative; the Ub-ELuc luciferase, Light, Dox 500 ng/mL, 36 h light came to 9140 relative.
Turning to B3, the Average of the Light/Dark ratio, Dox 0 ng/mL is 1.4; the Average of the Light/Dark ratio, Dox 75 ng/mL worked out at 31.6; the Light/Dark, Dox 0 ng/mL is 1.1; the Light/Dark, Dox 75 ng/mL came out at 38.4. Moreover, the Ub-ELuc luciferase, Dark, Dox 0 ng/mL was found to be 0.3 relative; the Ub-ELuc luciferase, Dark, Dox 75 ng/mL is 0.3 relative; the Ub-ELuc luciferase, Light, Dox 0 ng/mL was determined as 0.3 relative; the Ub-ELuc luciferase, Light, Dox 75 ng/mL is 12.7 relative.
B4: the Average of the Light/Dark ratio, Dox 0 ng/mL was 1.5; the Average of the Light/Dark ratio, Dox 75 ng/mL stood at 15.8; the Light/Dark, Dox 0 ng/mL came out at 1.6; the Light/Dark, Dox 75 ng/mL is 26.4. The Ub-ELuc luciferase, Dark, Dox 0 ng/mL turned out to be 0.2 relative; the Ub-ELuc luciferase, Dark, Dox 75 ng/mL stood at 5.9 relative; the Ub-ELuc luciferase, Light, Dox 0 ng/mL was determined as 0.3 relative; the Ub-ELuc luciferase, Light, Dox 75 ng/mL came out at 76.7 relative.
Consider B5, for which the Average of the Light/Dark ratio, Dox 0 ng/mL is 19; the Average of the Light/Dark ratio, Dox 75 ng/mL came to 19.4; the Light/Dark, Dox 0 ng/mL turned out to be 30.6; the Light/Dark, Dox 75 ng/mL came out at 22.7. The Ub-ELuc luciferase, Dark, Dox 0 ng/mL was found to be 2.6 relative; the Ub-ELuc luciferase, Dark, Dox 75 ng/mL amounted to 3.1 relative; the Ub-ELuc luciferase, Light, Dox 0 ng/mL was 58.1 relative; the Ub-ELuc luciferase, Light, Dox 75 ng/mL turned out to be 41.4 relative.
Consider B6, for which the Average of the Light/Dark ratio, Dox 0 ng/mL turned out to be 3.2; the Average of the Light/Dark ratio, Dox 75 ng/mL was 22.5; the Light/Dark, Dox 0 ng/mL is 3.5; the Light/Dark, Dox 75 ng/mL came out at 3.4. The Ub-ELuc luciferase, Dark, Dox 0 ng/mL stood at 0.2 relative; the Ub-ELuc luciferase, Dark, Dox 75 ng/mL amounted to 0.1 relative; the Ub-ELuc luciferase, Light, Dox 0 ng/mL came to 0.5 relative; the Ub-ELuc luciferase, Light, Dox 75 ng/mL worked out at 0.4 relative.
Turning to B7, the Average of the Light/Dark ratio, Dox 0 ng/mL stood at 2.2; the Average of the Light/Dark ratio, Dox 75 ng/mL stood at 17; the Light/Dark, Dox 0 ng/mL was 3.1; the Light/Dark, Dox 75 ng/mL turned out to be 3.1. For the same molecule, the Ub-ELuc luciferase, Dark, Dox 0 ng/mL is 0.2 relative; the Ub-ELuc luciferase, Dark, Dox 75 ng/mL is 0.2 relative; the Ub-ELuc luciferase, Light, Dox 0 ng/mL is 0.5 relative; the Ub-ELuc luciferase, Light, Dox 75 ng/mL turned out to be 0.7 relative.
